Experimental findings from US20230303654A1 (CITY OF HOPE, published 2023) are described below.

Where two headings read alike, the source gives them in different places.

In assay [1] the target is T1, purified 6× His-tagged SARS-CoV-2 spike protein (ELISA coat, Example 12) (SARS-CoV-2, UniProt P0DTC2 14-1213).
The target of assay [2] is T1, purified 6× His-tagged SARS-CoV-2 spike …. This is another data set of the same source.

B1: Anti-spike RBD Ab27 scFv (scFv)
scFv: ELQMTQSPSSLSASVGDRVTITCRASQSISSYLNWYQQKPGKAPKLLIYAASSLQSGVPSRFSGSGSGTDFTLTISSLQPEDFATYYCQQANSFPFTFGPGTKVDIKGGSSRSSQVQLVQSGAEVKKPGASVKVSCKASGYTFTSYGISWVRQAPGQGLEWMGWVNPNGGHTGYAQKFQGRVTMTRHTATNTVYMELSSLTSDDTAVYYCARGKGYYYGMDVWGQGTTVLVSSASTKGPSV
As a reminder, the EC50 is the concentration needed to bring the measured effect to its halfway point. On to B1, for which a half-maximal effect in assay [1] (EC50) was put at 8.85 nM.

B2: Anti-spike RBD Ab39 scFv (scFv)
scFv: ELVLTQSPGTLSLSPGERATLSCRASQSLYNNFLAWYQQKPGQAPRLLIYAASNRATGIPDRFSGSGSGTDFTLTISRLEPEDFAVYYCQQYGSSPGYTFGQGTKLEIKGGSSRSSQVQLVQSGAEVKKPGSSVKVSCKASGGTFSSYAISWVRQAPGQGLEWMGGIIPIFGTANYAQKFQGRVTITADESTSTAYMELSSLRSEDTAVYYCARTLRQYYYYGMDVWGQGTTVTVSSGSASAPTL
B2 showed an EC50 in assay [1] of 4.93 nM.

B3: Anti-spike RBD Ab37 scFv (scFv)
scFv: ELMLTQPPSVSVAPGQTARITCGGNNIGSKSVHWYQQKPGQAPVLVVYDDSDRPSGIPERFSGSNSGNTATLTISRVEAGDEADYYCQVWDNTLLFGGGTELTVLGGGSSRSSGVQLVESGGGLVQPGGSLRLSCSASGFTFSSYAMHWVRQAPGKGLEYVSGISSNGGGTHYADSVKGRFSISRDNSKNTLYLQMSSLRAEDTAVYYCVKDDSGSYFSLFDHWGQGTLVTVSSASTKGPSV
Turning to B3, the EC50 is 5.28 nM in assay [1] and 5.18 nM in assay [2].
